Results on 1 molecule are retold here after patent publication US20150329637A1 (NUMAB, published 2015).

Assay [1] addresses T1, human IL23R on IL-23R expressing cell lines (DLD-1, SW480, TF-1) (human, UniProt Q5VWK5 24-629).
T1 sequence (looked up): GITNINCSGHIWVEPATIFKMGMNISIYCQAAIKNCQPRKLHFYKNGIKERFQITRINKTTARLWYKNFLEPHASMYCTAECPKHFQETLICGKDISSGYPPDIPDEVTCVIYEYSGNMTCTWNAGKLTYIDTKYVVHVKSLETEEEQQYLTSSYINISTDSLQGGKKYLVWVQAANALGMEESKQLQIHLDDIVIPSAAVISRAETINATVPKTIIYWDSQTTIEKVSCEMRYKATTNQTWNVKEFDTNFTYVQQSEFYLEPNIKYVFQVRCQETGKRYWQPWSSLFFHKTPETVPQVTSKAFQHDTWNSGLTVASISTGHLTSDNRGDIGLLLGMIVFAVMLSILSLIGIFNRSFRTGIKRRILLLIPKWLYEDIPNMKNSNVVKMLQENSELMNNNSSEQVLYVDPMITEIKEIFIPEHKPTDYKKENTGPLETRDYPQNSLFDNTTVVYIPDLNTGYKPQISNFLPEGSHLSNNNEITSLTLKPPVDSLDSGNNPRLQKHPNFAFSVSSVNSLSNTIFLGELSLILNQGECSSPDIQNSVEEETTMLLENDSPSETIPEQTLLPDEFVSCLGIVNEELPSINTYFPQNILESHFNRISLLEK
In words: cell-based or functional assay.

Assay [2] has as its target T2, Human IL23R extracellular domain (ECD) (human, UniProt Q5VWK5 24-355).
T2 construct: extracellular domain; also called human IL23R ECD
T2 sequence (looked up): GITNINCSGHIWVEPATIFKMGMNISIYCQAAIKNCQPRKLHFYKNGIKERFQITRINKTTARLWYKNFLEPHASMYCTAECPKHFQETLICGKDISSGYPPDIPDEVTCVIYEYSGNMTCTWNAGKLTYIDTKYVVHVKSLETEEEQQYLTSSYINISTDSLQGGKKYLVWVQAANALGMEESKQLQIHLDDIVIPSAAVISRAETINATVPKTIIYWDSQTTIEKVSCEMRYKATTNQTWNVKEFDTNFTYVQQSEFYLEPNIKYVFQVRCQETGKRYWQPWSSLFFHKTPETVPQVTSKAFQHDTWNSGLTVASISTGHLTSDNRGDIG
The experiment in a line: SPR; human IL23R ECD immobilised, scDb injected. As for the experimental part:
[000154] For affinity measurements to IL23R, human IL23R extracellular domain (produced on request by Trenzyme) was immobilized on a sensor chip (SPR-2 Affinity Sensor High Capacity Amine, Sierra Sensors) using a standard amine-coupling procedure. Two-fold serial dilutions of scDbs ranging from 90 to 5.6 nM were injected into the flow cells for 3 min and dissociation of the protein from the immobilized IL23R on the sensor chip was allowed to proceed for 720 sec. After each injection cycle, surfaces were regenerated with a 1 min injection of 10 mM Glycine-HCl pH 2.0. The apparent dissociation (kd) and association (ka) rate constants and the apparent dissociation equilibrium constant (KD) are calculated with the MASS-1 analysis software (Analyzer, Sierra Sensors) using one-to-one Langmuir binding model.

The target of assay [3] is T3, human heterodimeric single-chain CD3γδ extracellular domain (produced in-house) (human).
T3 chain: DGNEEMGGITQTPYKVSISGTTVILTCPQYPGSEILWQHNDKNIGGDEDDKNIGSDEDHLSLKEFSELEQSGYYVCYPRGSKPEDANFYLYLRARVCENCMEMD
The experiment in a line: SPR; human single-chain CD3 ECD immobilised, scDb injected.

B1: PRO165 (bispecific antibody)
chain: DIQMTQSPSSLSASVGDRVTITCQASENIYSFLAWYQQKPGKAPKLLIYSASKLAAGVPSRFSGSGSGTDFTLTISSLQPEDFATYYCQQTNRYSNPDIYNVFGQGTKLTVLGGGGGSEVQLVESGGGLVQPGGSLRLSCAASGFPLSSYAMIWVRQAPGKGLEWIGMILRAGNIYYASWVKGRFTISRDNSKNTVYLQMNSLRAEDTAVYYCARRHYNREGYPIGIGDLWGQGTLVTVSSGGGGSGGGGSGGGGSGGGGSDIQMTQSPSSLSASVGDRVTITCQSSESVYNNKRLSWYQQKPGKAPKLLIYTASSLASGVPSRFSGSGSGTDFTLTISSLQPEDFATYYCQGEFTCSNADCFTFGQGTKLTVLGGGGGSEVQLVESGGGLVQPGGSLRLSCAASGIDFNSNYYMCWVRQAPGKGLEWIGCIYVGSHVNTYYANWAKGRFTISRDNSKNTVYLQMNSLRAEDTAVYYCATSGSSVLYFKFWGQGTLVTVSS
notes: also called anti-IL23RxCD3ε scDb
On to B1, for which, in assay [1], the “EC50 of specific target cell lysis [nM], DLD-1” value was determined as 45.4 nM; the “EC50 of specific target cell lysis [nM], SW-480” value was found to be 71.7 nM; the “EC50 of specific target cell lysis [nM], TF-1” value amounted to 39.8 nM. Also, the dissociation constant Kd (commonly the concentration at which binding is half-saturated) in assay [2] turned out to be 0.182 nM. In addition, in assay [3], the Kd was 11.6 nM; the koff – broadly, the rate constant with which the complex falls apart – came out at 0.00126 s⁻¹; the kon (as a rule, the rate constant with which the complex forms) is 109000 M⁻¹ s⁻¹.
